In paper PMC11393453, “Phosphorylation of tau at a single residue inhibits binding to the E3 ubiquitin ligase, CHIP” (Nature Communications, 2024):
Residue numbers refer to the chain shown, from its start. Names and notes keep the numbering of the source. Like-named read-outs stand apart in the source and are kept apart here. Each block holds one molecule with its values, some of them ahead of it. Non-standard residues stand in square brackets, D forms with d. pS = N[C@@H](COP(=O)(O)O)C(=O)O

What was measured:
CHIP [1] = assay: NanoBiT live cell PPI assay (CHIP-tau split luciferase); type: cell-based; details: 30 nM okadaic acid; HEK293 cells
Experimental: Fig. 1 Phosphorylation of tauC3 inhibits interaction with CHIP. A Cartoon schematic of the live-cell NanoBiT assay for measuring CHIP-tau PPIs (NanoBiT PDB = 7SNX; CHIP PDB = 2C2L). B Results of NanoBiT assays for CHIP interactions with tau proteoforms following treatment with okadaic acid (30 nM, 18 h) or DMSO control. Luminescence normalized to CHIP binding to FL 0N4R tau treated with vehicle (dashed line). Error bars represent standard deviation (SD). Statistical significance was determined by two-way ANOVA with Bonferroni’s post hoc analysis (n = 3 biological replicates). CTRL = mock transfected control. C Tau proteoforms binding to immobilized CHIP measured by ELISA. Assay was performed in technical triplicate and normalized to maximum absorbance at 450 nm. D Dissociation constants derived from (C). Error bars represent SD. E In vitro ubiquitination of tau proteoforms by CHIP. Samples were collected at the denoted timepoints, quenched in SDS-PAGE loading buffer, and analyzed by western blot. Assay was performed once.
Fig. 2 Phosphorylation of tauC3 Ser416 is sufficient to inhibit interaction with CHIP. A Cartoon depicting constructs used for mapping of inhibitory phosphorylation sites by NanoBiT live cell assays. B NanoBiT live cell assay for CHIP interactions with truncated tau constructs following treatment with okadaic acid (30 nM, 18 h) or DMSO control. Data are shown as the difference between okadaic acid treated samples and vehicle control. Error bars represent SD. Statistical significance was determined by two-sided, one-way ANOVA with Tukey’s post hoc analysis (n = 3 biological replicates). C Apparent change in melting temperatures (Tmapp) for CHIP incubated with DMSO control or Hsp70 C-terminal peptides, as determined by DSF. Error bars represent SD. (n = 4 technical replicates). D DSF experiments performed and analyzed as in the previous panel, but with tauC3-derived peptides. (n = 4 technical replicates). E Competition FP experiment showing displacement of fluorescent tracer from the CHIP TPR domain by various 10-mer Hsp70 or tauC3-derived peptides. Experiments were performed in technical quadruplicate. F Inhibition constants derived from (E). Error bars represent SD. G Tau proteoforms binding to immobilized CHIP, as measured by ELISA. Assay was performed in technical triplicate and normalized to maximum absorbance at 450 nm. H Dissociation constants derived from (G). Error bars represent SD.
CHIP-substrate NanoBiT PPI assay was performed as previously described. Briefly, HEK293T cells were seeded in poly-D-lysine coated 96-well plates (Corning, flat bottom, white opaque) in Opti-MEM. Cells were transfected with 50 ng each SmBiT/LgBiT DNA using Lipofectamine 3000 (Thermo Fisher) in Opti-MEM according to the manufacturer’s instructions. Transfections were performed for 24 h, after which the media was replaced with fresh Opti-MEM containing DMSO or 30 nM okadaic acid. Cells were incubated for an additional […] at 37 °C/5% CO2 in a humidified incubator. Following this incubation, 12.5 uL 1X Nano-Glo live cell luciferase reagent (Promega) diluted in LCS buffer (Promega) was added to each well, and samples were incubated for 10 min at room temperature in the dark to allow luminescence levels to stabilize. […] Un-transfected cells were used to obtain background measurements which were subtracted from observed luminescence values.

CHIP [2] = assay: Differential scanning fluorimetry (DSF), CHIP WT with 10-mer peptides; type: binding, human; details: CHIP + peptide, sheet S3B
Experimental: DSF was performed with a 10 µL assay volume in 384-well Axygen quantitative PCR plates (Fisher Sci) on a qTower[3] real-time PCR thermal cycler (Analytik Jena). […] Temperature was increased 1 °C per cycle. Each well contained 5 µM CHIP, 5× Sypro Orange dye (Thermo Fisher), and varying concentrations of peptide in DSF assay buffer (25 mM HEPES pH 7.4, 50 mM KCl, 1 mM TCEP, 0.2% CHAPS, 1%DMSO). Fluorescence intensity data was truncated between 30–60 °C, plotted relative to temperature, and fit to a Boltzmann Sigmoid in GraphPad Prism 9.0. CHIP apparent melting temp (Tmapp) was calculated based on the following equation:1 Y=Bottom+((Top−Bottom)/(1+exp(Tm−T/Slope)))

[3] = target: CHIP (C-terminus of Hsc70 interacting protein; STUB1) (UniProt Q9UNE7); assay: differential scanning fluorimetry of CHIP
[4] = target: CHIP (C-terminus of Hsc70 interacting protein; STUB1) (UniProt Q9UNE7); assay: competition FP against fluorescent tracer; details: reference: unmodified Hsp70 peptide; sites T636
[5] = target: GFP-tagged tauC3 S416E, doxycycline-inducible in HEK293 Flp-In T-REx cells; assay: co-IP; tau immunoprecipitated with anti-Tau-5 and Protein A/G agarose from lysates of HEK293 Flp-In T-REx GFP-tau cells (25 mM Tris-HCl pH 7.4, 150 mM NaCl, 1 mM EDTA, 1% NP-40); co-precipitated endogenous CHIP by western blot
[6] = target: CHIP (C-terminus of Hsc70 interacting protein; STUB1), recombinant human, full-length (human) (UniProt Q9UNE7)
[7] = target: CHIP (C-terminus of Hsc70 interacting protein; STUB1) (UniProt Q9UNE7); assay: tau IP (Tau-5), CHIP western blot; details: reference: GFP-tauC3 WT; sites S416
[8] = target: CHIP (C-terminus of Hsc70 interacting protein; STUB1), recombinant human, full-length (human) (UniProt Q9UNE7); remark: listed apart in the source
[9] = target: T1, CHIP (C-terminus of Hsc70 interacting protein; STUB1), recombinant human, full-length (human, UniProt Q9UNE7 1-303); assay: fluorescence polarisation; competition: CHIP 1.58 µM + fluorescent tracer 20 nM, peptide competitor in three-fold dilutions, 25 mM HEPES pH 7.4, 50 mM KCl, 0.01% Triton X-100, DMSO; Ki calculated from IC50; details: both partners purified
T1 construct: CHIP (STUB1), human, E3 ubiquitin ligase; Used in ELISA, DSF and FP; the FP legends speak of the CHIP TPR domain, the FP methods only of CHIP; also called WT CHIP; source: E. coli BL21DE3, purified (Ni-NTA, TEV cleavage, SEC); not shown: His6, N-terminal, cleaved
T1 sequence (looked up): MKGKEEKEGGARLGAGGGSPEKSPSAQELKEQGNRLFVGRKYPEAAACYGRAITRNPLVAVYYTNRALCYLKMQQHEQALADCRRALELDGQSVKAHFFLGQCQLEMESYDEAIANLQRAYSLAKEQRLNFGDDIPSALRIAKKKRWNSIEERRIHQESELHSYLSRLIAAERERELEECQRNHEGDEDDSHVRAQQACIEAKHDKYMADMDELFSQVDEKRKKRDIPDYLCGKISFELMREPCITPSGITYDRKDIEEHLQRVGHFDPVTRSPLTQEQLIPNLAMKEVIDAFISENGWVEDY

CHIP D134A [10] = target: T2, CHIP D134A (human, UniProt Q9UNE7 1-303, D134A); assay: as above; details: both partners purified
T2 construct: CHIP (STUB1) with Asp134 mutated to alanine; also called D134A CHIP
T2 sequence (looked up): T1 sequence (looked up) with D134A

CHIP F131A = target: T3, CHIP F131A (human, UniProt Q9UNE7 1-303, F131A); assay: differential scanning fluorimetry; 5 µM CHIP, 5x Sypro Orange, varying concentrations of peptide in 25 mM HEPES pH 7.4, 50 mM KCl, 1 mM TCEP, 0.2% CHAPS, 1% DMSO; apparent melting temperature (Tmapp) of CHIP; details: both partners purified
T3 construct: CHIP (STUB1) with Phe131 mutated to alanine
T3 sequence (looked up): T1 sequence (looked up) with F131A

CHIP D134A [11] = target: T2, CHIP D134A; assay: as above; details: both partners purified
[12] = reference: unmodified tauC3 peptide, sites S416

Molecule: C=C1[C@@H](O)[C@@H]2O[C@]3(CC[C@H](/C=C/[C@@H](C)[C@@H]4CC(C)=C[C@@]5(O[C@H](C[C@@](C)(O)C(=O)O)CC[C@H]5O)O4)O3)CC[C@H]2O[C@@H]1[C@@H](O)C[C@H](C)[C@H]1O[C@@]2(CCCCO2)CC[C@H]1C [okadaic acid, reference compound]
effect on CHIP interaction with FL tau (CHIP [1]): enhanced CHIP’s interaction with FL tau | effect on CHIP interaction with tauC3 (CHIP [1]): significantly lessened the interaction with tauC3

Molecule: ESTGSIDMVD [tauC3 S412E, 10-mer tauC3 phosphomimetic peptide]
Tm(app) derived from DSF curves (CHIP [2]; replicate 1): 50.23 | Tm(app) derived from DSF curves (CHIP [2]; replicate 2): 50.09 | Tm(app) derived from DSF curves (CHIP [2]; replicate 3): 49.65 | Tm(app) derived from DSF curves (CHIP [2]; replicate 4): 49.78

Molecule: Hsp70 (HSPA1A) C-terminal 10mer (from UniProt P0DMV8) pT636 peptide
binding against the reference ([3]; reference: unmodified Hsp70 peptide, sites T636): weaker | binding against the reference [4]: weaker

Molecule: SETGSIDMVD [tauC3 S413E, 10-mer tauC3 phosphomimetic peptide]
Tm(app) derived from DSF curves (CHIP [2]; replicate 1): 50.06 | Tm(app) derived from DSF curves (CHIP [2]; replicate 2): 50.15 | Tm(app) derived from DSF curves (CHIP [2]; replicate 3): 49.96 | Tm(app) derived from DSF curves (CHIP [2]; replicate 4): 49.5

Molecule: SSEGSIDMVD [tauC3 T414E, 10-mer tauC3 phosphomimetic peptide]
Tm(app) derived from DSF curves (CHIP [2]; replicate 1): 49.33 | Tm(app) derived from DSF curves (CHIP [2]; replicate 2): 49.12 | Tm(app) derived from DSF curves (CHIP [2]; replicate 3): 49.22 | Tm(app) derived from DSF curves (CHIP [2]; replicate 4): 48.96

Molecule: endogenous CHIP (from UniProt Q9UNE7 1-303) (enzyme)
relative amount of co-immunoprecipitated CHIP [5]: 0.55

Molecule: tauC3 S416E, recombinant protein with a single phosphomimetic mutation (domain or fragment)
Kd [8]: 780 nM

B1: tauC3 C-terminal 10-mer peptide Ac-SSTGSIDMVD-OH (peptide)
peptide: Ac-SSTGSIDMVD-OH
notes: C-terminus of tauC3 (tau ending at D421); numbers count on: the 2N4R-tau splice isoform; also called WT tauC3 peptide; WT tauC3; source: synthetic peptide
Ki [9]: 150 nM | Ki (CHIP D134A [10]): 5570 nM | binding result (CHIP F131A): binds

B2: tauC3 S416E phosphomimetic 10-mer peptide Ac-SSTGEIDMVD-OH (peptide)
peptide: Ac-SSTGEIDMVD-OH
notes: C-terminus of tauC3 with S416 replaced by glutamic acid; numbers count on: the 2N4R-tau splice isoform; also called tauC3 S416E peptide; pS416 phosphomimetic; source: synthetic peptide
Ki [9]: 2410 nM | binding result (CHIP F131A): binds | binding result (CHIP D134A [11]): binds

Further lines, results first:

Kd [6]: 700 nM
Molecule: p.tauC3, natively phosphorylated tauC3 from Sf9 insect cells (domain or fragment)

other: CHIP Tmapp [3, 12]: weaker; reference 48.81 ± 0.11
Molecule: tau (MAPT/tau; tauC3, FL 0N4R tau) C-terminal 10-mer of tauC3, ends at D421 (from UniProt P10636-8) S416E peptide (Ac-…-OH)

binding against the reference [3, 12]: weaker
Molecule: tau (MAPT/tau; tauC3, FL 0N4R tau) C-terminal 10-mer of tauC3, ends at D421 (from UniProt P10636-8) pS416 peptide

other: relative amount of co-IP CHIP [7]: 0.55
Molecule: tau (MAPT/tau; tauC3, FL 0N4R tau) tauC3, ends at D421 (from UniProt P10636-8) GFP-tauC3 S416E

Kd [6]: 190 nM | Kd [8]: 90 nM
Molecule: tauC3, unmodified recombinant (0N4R tau cleaved at D421) (domain or fragment)

Ki [9]: 1010 nM | Ki (CHIP D134A [10]): 1840 nM
B3: tauC3 pS416 10-mer peptide (peptide)
peptide: Ac-SSTG[pS]IDMVD-OH
notes: C-terminal 10-mer of tauC3 with a bona fide phosphoserine at the S416 position; numbers count on: the 2N4R-tau splice isoform; also called phosphorylated tauC3 peptide; source: synthetic peptide (Genscript)
